Assay [1] deals with Human eotaxin (human) (UniProt P51671). The assay is described as follows: cell-based or functional assay.
For assay [2] the target is unchanged. The assay can be described thus: not stated (summary sentence in the introduction).
Assay [3] shares this target. The assay is described as follows: saturation binding of [125I]eotaxin to coated CAT-212 on a Flash Plate, Scatchard plot.
Assay [4] has the same target. The assay can be described thus: Flash Plate scintillation competition: unlabelled CAT-212 against coated CAT-212 for [125I]eotaxin; mean of 4 estimates.

Sequence of Human eotaxin (human) (P51671 24-97 limits assumed): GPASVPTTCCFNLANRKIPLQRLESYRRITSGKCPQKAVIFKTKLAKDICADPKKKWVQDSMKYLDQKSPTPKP

B1: CAT-212 (scFv, part only; not given: scFv linker and myc/His tag, V domains shown, not shown: another chain or arm of the molecule; small tags and cut ends)
VH: QVQLVQSGGGVVQPGRSLRLSCAASGFTFSSYGMHWVRQAPGKGLEWVAVISYDGSIKHYADSVKGRFTISRDNSKNTLYLQMNSLRTDDTAVYYCAGDTDYGDIDPWGQGTMVTVSS
VL: DIQMTQSPSSVSASVGDRVTITCRASQDISSWLAWYQQKPGKAPKLLIYAASSLQSGVPSRFSGSGSGTDFTLTISSLQPEDFATYYCQQASSFPSITFGQGTRLEIK
What is called Kd is the constant that tells how readily two partners part at equilibrium. Lower therefore signals higher affinity. By IC50 is commonly meant the concentration that gives 50% inhibition. Consider B1, for which, in the assay with Human eotaxin (human) [1], the IC50, inhibition of eotaxin-induced Ca2+ flux in CCR3 cells (FLIPR, area under the curve) was 5 nM; the IC50, inhibition of eotaxin-mediated chemotaxis of CCR3-transfected L1.2 cells was 650 pM; the improvement in chemotaxis neutralisation potency over scFv 3G3 is 1000 fold. The molecule further came in with a Kd with Human eotaxin (human) [2] of 0.015 nM. In addition, the Kd in the assay with Human eotaxin (human) [3] was 0.146 nM. In the assay with Human eotaxin (human) [4], the IC50 was 0.0425 nM.
